The results in this text go back to patent US20090285813A1.

In the experiment the target is human CD3 (human) (UniProt P07766). In words: cell-based or functional assay.

Positions count from the first letter of the chain named.

Sequence of human CD3 (human) (P07766 23-207): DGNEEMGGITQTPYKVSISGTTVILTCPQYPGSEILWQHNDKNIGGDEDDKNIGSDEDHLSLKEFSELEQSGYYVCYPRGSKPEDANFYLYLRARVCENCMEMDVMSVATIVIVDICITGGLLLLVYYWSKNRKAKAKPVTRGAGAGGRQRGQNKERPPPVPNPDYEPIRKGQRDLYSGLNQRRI

B1: anti-CD3 HuFR antibody 3 (heavy chain BD20611, light chain BD21132) (antibody, part only; not given: Heavy stretch before framework 4, V domains shown, part only)
VH, part: QVQLVESGAEVKKPGASVKVSCKASGYTFTRYTMHWVRQAPGKGLEWMGYINPSRGYTNYNQKFKDRLTISKDTSKNQVVLTMTNMDPVDTATYYCARYYDDHYCLDYVTVSSASTKGPS
VL: EIVLTQSPATLSLSPGERATLSCSASSSVSYMNWYQQKPGKAPKLLIYDTSKLASGVPSRFSGSGSGTEFTLTISSLQPDDFATYYCQQWSSNPFTFGQGTKVEIKFGQGTKVEIKR
On to B1, for which the Apo-One Apoptosis Assay, 12.5 ng/ml turned out to be 649; the Apo-One Apoptosis Assay, 12.5 ng/ml, second block (ratio to Fc null) turned out to be 1.3; the Apo-One Apoptosis Assay, 25 ng/ml amounted to 854; the Apo-One Apoptosis Assay, 25 ng/ml, second block (ratio to Fc null) stood at 1.2. Further, the Apo-One Apoptosis Assay, 50 ng/ml amounted to 1130 and the Apo-One Apoptosis Assay, 50 ng/ml, second block (ratio to Fc null) was 1.

B2: anti-CD3 HuFR antibody 5 (heavy chain BD20611, light chain BD21134) (antibody, part only; not given: Heavy stretch before framework 4, V domains shown, part only)
VH, part: B1 VH, part
VL: B1 VL with L4M, L13V, K41Q, A42P
On to B2, for which the Apo-One Apoptosis Assay, 12.5 ng/ml stood at 1160; the Apo-One Apoptosis Assay, 12.5 ng/ml, second block (ratio to Fc null) amounted to 2.4; the Apo-One Apoptosis Assay, 25 ng/ml came out at 1660; the Apo-One Apoptosis Assay, 25 ng/ml, second block (ratio to Fc null) was 2.3. In addition, the Apo-One Apoptosis Assay, 50 ng/ml was found to be 2160 and the Apo-One Apoptosis Assay, 50 ng/ml, second block (ratio to Fc null) is 1.8.

B3: anti-CD3 HuFR antibody 8 (heavy chain BD20611, light chain BD21137) (antibody, part only; not given: few VH framework 4 residues, V domains shown, part only)
VH, part: B1 VH, part
VL: DIQMTQSPSTLSASVGDRVTITCSASSSVSYMNWYQQKPGQPPKLLIYDTSKLASGVPSRFSGSGSGTDFTFTISSLQPEDIATYYCQQWSSNPFTFGQGTKVEIKFGQGTKVEIKR
As for B3, the Apo-One Apoptosis Assay, 12.5 ng/ml was determined as 969; the Apo-One Apoptosis Assay, 12.5 ng/ml, second block (ratio to Fc null) turned out to be 2; the Apo-One Apoptosis Assay, 25 ng/ml was 1630; the Apo-One Apoptosis Assay, 25 ng/ml, second block (ratio to Fc null) came out at 2.2. In addition, the Apo-One Apoptosis Assay, 50 ng/ml was 2560 and the Apo-One Apoptosis Assay, 50 ng/ml, second block (ratio to Fc null) is 2.1.

B4: anti-CD3 HuFR antibody 6 (heavy chain BD20611, light chain BD21135) (antibody, part only; not given: Heavy stretch before framework 4, V domains shown, part only)
VH, part: B1 VH, part
VL: B1 VL with L4M, L13V, K41Q, K44R, S59D, E69D, P79A, D80E, F82V, T84V
Take B4: the Apo-One Apoptosis Assay, 12.5 ng/ml was determined as 1280; the Apo-One Apoptosis Assay, 12.5 ng/ml, second block (ratio to Fc null) worked out at 2.6; the Apo-One Apoptosis Assay, 25 ng/ml came to 2220; the Apo-One Apoptosis Assay, 25 ng/ml, second block (ratio to Fc null) worked out at 3.1. For the same molecule, the Apo-One Apoptosis Assay, 50 ng/ml amounted to 3500 and the Apo-One Apoptosis Assay, 50 ng/ml, second block (ratio to Fc null) came out at 2.9.

B5: anti-CD3 HuFR antibody 4 (heavy chain BD20611, light chain BD21133) (antibody, part only; not given: Heavy stretch before framework 4, V domains shown, part only)
VH, part: B1 VH, part
VL: DIVMTQSPLSLPVTPGEPASISCSASSSVSYMNWYQQKPGQPPKLLIYDTSKLASGVPSRFSGSGSGTEFTLTISSLQPDDFATYYCQQWSSNPFTFGQGTKVEIKFGQGTKVEIKR
With B5, the Apo-One Apoptosis Assay, 12.5 ng/ml amounted to 1390; the Apo-One Apoptosis Assay, 12.5 ng/ml, second block (ratio to Fc null) stood at 2.8; the Apo-One Apoptosis Assay, 25 ng/ml is 2350; the Apo-One Apoptosis Assay, 25 ng/ml, second block (ratio to Fc null) came out at 3.2. Also, the Apo-One Apoptosis Assay, 50 ng/ml came to 3300 and the Apo-One Apoptosis Assay, 50 ng/ml, second block (ratio to Fc null) was determined as 2.8.

B6: anti-CD3 HuFR antibody 1 (heavy chain BD20610, light chain BD21130) (antibody, part only; not given: Heavy stretch before framework 4, V domains shown, part only)
VH, part: QVQLVESGAEVKKPGASVKVSCKASGYTFTRYTMHWVRQAPGKGLEWMGYINPSRGYTNYNQKFKDRVTISVDTSKNQFSLKLSSVTAADTAVYYCARYYDDHYCLDYVTVSSASTKGPS
VL: DIQMTQSPSSLSASVGDRVTITCSASSSVSYMNWYQQKPGQPPKLLIYDTSKLASGVPDRFSGSGSGTDFTLKISRVEAEDVGVYYCQQWSSNPFTFGQGTKVEIKFGQGTKVEIKR
Regarding B6, the Apo-One Apoptosis Assay, 12.5 ng/ml amounted to 797; the Apo-One Apoptosis Assay, 12.5 ng/ml, second block (ratio to Fc null) was 1.6; the Apo-One Apoptosis Assay, 25 ng/ml came out at 1220; the Apo-One Apoptosis Assay, 25 ng/ml, second block (ratio to Fc null) was found to be 1.7. Also, the Apo-One Apoptosis Assay, 50 ng/ml is 1750 and the Apo-One Apoptosis Assay, 50 ng/ml, second block (ratio to Fc null) came to 1.5.

B7: anti-CD3 HuFR antibody 2 (heavy chain BD20613, light chain BD21131) (antibody, part only; not given: few VH framework 4 residues, V domains shown, part only)
VH, part: QVQLQESGPGLVKPSETLSLTCAVSGYTFTRYTMHWVRQAPGKGLEWVGYINPSRGYTNYNQKFKDRFTISRDDSKNTAYLQMNSLKTEDTAVYYCTRYYDDHYCLDYVTVSSASTKGPS
VL: B6 VL with S10T, P42A, K44R
On to B7, for which the Apo-One Apoptosis Assay, 12.5 ng/ml came out at 854; the Apo-One Apoptosis Assay, 12.5 ng/ml, second block (ratio to Fc null) came out at 1.7; the Apo-One Apoptosis Assay, 25 ng/ml was found to be 1440; the Apo-One Apoptosis Assay, 25 ng/ml, second block (ratio to Fc null) came to 2. Moreover, the Apo-One Apoptosis Assay, 50 ng/ml is 2160 and the Apo-One Apoptosis Assay, 50 ng/ml, second block (ratio to Fc null) stood at 1.8.

B8: anti-CD3 HuFR antibody 7 (heavy chain BD20611, light chain BD21136) (antibody, part only; not given: Heavy stretch before framework 4, V domains shown, part only)
VH, part: B1 VH, part
VL: B6 VL with S10T, Q41K, P42A, V57I, K73T, V77L, A79P, V82F, G83A
As for B8, the Apo-One Apoptosis Assay, 12.5 ng/ml turned out to be 2270; the Apo-One Apoptosis Assay, 12.5 ng/ml, second block (ratio to Fc null) was 4.6; the Apo-One Apoptosis Assay, 25 ng/ml is 3480; the Apo-One Apoptosis Assay, 25 ng/ml, second block (ratio to Fc null) was found to be 4.8. Further, the Apo-One Apoptosis Assay, 50 ng/ml stood at 4740 and the Apo-One Apoptosis Assay, 50 ng/ml, second block (ratio to Fc null) worked out at 4.

B9: anti-CD3 HuFR antibody 9 (heavy chain BD20613, light chain BD21138) (antibody, part only; not given: few VH framework 4 residues, V domains shown, part only)
VH, part: B7 VH, part
VL: B6 VL with S10T, Q41K, P42A
With B9, the Apo-One Apoptosis Assay, 12.5 ng/ml was found to be 885; the Apo-One Apoptosis Assay, 12.5 ng/ml, second block (ratio to Fc null) came out at 1.8; the Apo-One Apoptosis Assay, 25 ng/ml was determined as 1380; the Apo-One Apoptosis Assay, 25 ng/ml, second block (ratio to Fc null) was found to be 1.9. Moreover, the Apo-One Apoptosis Assay, 50 ng/ml amounted to 2040 and the Apo-One Apoptosis Assay, 50 ng/ml, second block (ratio to Fc null) turned out to be 1.7.
